T1: TNFR2-Fc (Enbrel) fusion protein (UniProt P20333 23-257)
T1 construct: extracellular domain; Commercial product (Enbrel) used as coated antigen
T1 sequence (looked up): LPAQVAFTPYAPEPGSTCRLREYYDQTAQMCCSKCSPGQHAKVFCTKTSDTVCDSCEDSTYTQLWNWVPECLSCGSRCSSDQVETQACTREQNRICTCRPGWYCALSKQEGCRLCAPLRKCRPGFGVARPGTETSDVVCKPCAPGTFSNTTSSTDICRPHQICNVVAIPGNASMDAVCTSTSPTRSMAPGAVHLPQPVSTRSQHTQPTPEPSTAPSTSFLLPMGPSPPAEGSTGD

T2: TNFR2 (on Kym-1 cells) (UniProt P20333 23-461, limits assumed)
T2 sequence (looked up): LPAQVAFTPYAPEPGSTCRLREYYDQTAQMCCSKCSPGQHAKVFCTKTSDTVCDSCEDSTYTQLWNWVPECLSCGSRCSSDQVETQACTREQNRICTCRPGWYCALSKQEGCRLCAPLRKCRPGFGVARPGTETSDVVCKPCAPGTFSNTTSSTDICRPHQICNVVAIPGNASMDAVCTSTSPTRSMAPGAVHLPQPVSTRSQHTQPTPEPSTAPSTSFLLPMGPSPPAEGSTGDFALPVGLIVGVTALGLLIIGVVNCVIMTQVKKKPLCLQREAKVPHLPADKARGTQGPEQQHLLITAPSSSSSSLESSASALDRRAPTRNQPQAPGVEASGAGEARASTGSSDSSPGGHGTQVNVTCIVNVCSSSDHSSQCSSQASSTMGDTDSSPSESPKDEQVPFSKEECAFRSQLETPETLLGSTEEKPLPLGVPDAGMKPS

B1: anti-TNFR2 IgG (antibody, V domains shown)
VH: QVQLQQSGAEVKKPGSAVKVSCKASGGTFSSYAISWVRQAPGQGLEWMGRIIPILGIANYAQKFQGRVTITADKSTSTAYMELSSLRSEDTAVYYCARDGLGDAFDIWGQGTMVTVSS
VL: QSALTQPRSVSGSPGQSITISCTGTSSDVGGYNYVSWYQQHPGKAPKLMIYDVSNRPSGVSNRFSGSKSGNTASLTISGLQAEDEADYYCSSYTSSSTLVVFGGGTKLTVL
B2: Db3-43xhuU3-EHD2-Fab3-43-Fckih (bispecific antibody)
light 1: not shown
heavy 1: QVQLVQSGAEVKKPGSSVKVSCKASGGTFSGYTMNWVRQAPGQGLEWMGLINPYKGVSTYNGKFKDRVTITADKSTSTAYMELSSLRSEDTAVYYCARSGYYGDSDWYFDVWGQGTLVTVSSGGGGSQAGLTQPPAVSVAPGQTASITCGRDNIGSRSVHWYQQKPGQAPVLVVYDDSDRPAGIPERFSGSNYENTATLTISRVEAGDEADYYCQVWGITSDHVVFGGGTKLTVLASDFTPPTVKILQSSCDGGGHFPPTIQLLCLVSGYTPGTINITWLEDGQVMDVDLSTASTTQEGELASTQSELTLSQKHWLSDRTYTCQVTYQGHTFEDSTKKCADSNDKTHTCPPCPAPPVAGPSVFLFPPKPKDTLMISRTPEVTCVVVDVSHEDPEVKFNWYVDGVEVHNAKTKPREEQYNSTYRVVSVLTVLHQDWLNGKEYKCKVSNKGLPSSIEKTISKAKGQPREPQVCTLPPSRDELTKNQVSLSCAVKGFYPSDIAVEWESNGQPENNYKTTPPVLDSDGSFFLVSKLTVDKSRWQQGNVFSCSVMHEALHNHYTQKSLSLSPGK
heavy 2: QVQLQQSGPGLVKPSQTLSLTCAISGDSVSSNRAAWNWIRQSPSRGLEWLGRTYYRSKWYNDYAQSLKSRITINPDTPKNQFSLQLNSVTPEDTAVYYCARDGQLGLDALDIWGQGTMVTVSSASTKGPSVFPLAPSSKSTSGGTAALGCLVKDYFPEPVTVSWNSGALTSGVHTFPAVLQSSGLYSLSSVVTVPSSSLGTQTYICNVNHKPSNTKVDKKVEPKSCGTDKTHTCPPCPAPPVAGPSVFLFPPKPKDTLMISRTPEVTCVVVDVSHEDPEVKFNWYVDGVEVHNAKTKPREEQYNSTYRVVSVLTVLHQDWLNGKEYKCKVSNKGLPSSIEKTISKAKGQPREPQVYTLPPCRDELTKNQVSLWCLVKGFYPSDIAVEWESNGQPENNYKTTPPVLDSDGSFFLYSKLTVDKSRWQQGNVFSCSVMHEALHNHYTQKSLSLSPGK
light 2: QAGLTQPPAVSVAPGQTASITCGRDNIGSRSVHWYQQKPGQAPVLVVYDDSDRPAGIPERFSGSNYENTATLTISRVEAGDEADYYCQVWGITSDHVVFGGGTKLTVLGQPKAAPSVTLFPPSSEELQANKATLVCLISDFYPGAVTVAWKADSSPVKAGVETTTPSKQSNNKYAASSYLSLTPEQWKSHRSYSCQVTHEGSTVEKTVAPTECS
notes: Four different polypeptides; also called bispecific, trivalent Diabody-Fab fusion protein targeting HER3 (3-43) and CD3 (huU3)
B3: hu225-IgG (antibody, V domains shown)
VH: EVQLVESGGGLVQPGGSLRLSCAASGFSLTNYGVHWVRQAPGKGLEWLGVIWSGGNTDYNTPFTSRFTISRDNSKNTLYLQMNSLRAEDTAVYYCARALTYYDYEFAYWGQGTTVTVSS
VL: DIQLTQSPSFLSASVGDRVTITCRASQSIGTNIHWYQQKPGKAPKLLIKYASESISGVPSRFSGSGSGTEFTLTISSLQPEDFATYYCQQNNNWPTTFGAGTKLEIK
B4: Db3-43xhu225-EHD2-Fc (bispecific antibody)
heavy: EVQLVESGGGLVQPGGSLRLSCAASGFSLTNYGVHWVRQAPGKGLEWLGVIWSGGNTDYNTPFTSRFTISRDNSKNTLYLQMNSLRAEDTAVYYCARALTYYDYEFAYWGQGTTVTVSSGGGGSQAGLTQPPAVSVAPGQTASITCGRDNIGSRSVHWYQQKPGQAPVLVVYDDSDRPAGIPERFSGSNYENTATLTISRVEAGDEADYYCQVWGITSDHVVFGGGTKLTVLASDFTPPTVKILQSSCDGGGHFPPTIQLLCLVSGYTPGTINITWLEDGQVMDVDLSTASTTQEGELASTQSELTLSQKHWLSDRTYTCQVTYQGHTFEDSTKKCADSNDKTHTCPPCPAPPVAGPSVFLFPPKPKDTLMISRTPEVTCVVVDVSHEDPEVKFNWYVDGVEVHNAKTKPREEQYNSTYRVVSVLTVLHQDWLNGKEYKCKVSNKGLPSSIEKTISKAKGQPREPQVYTLPPSRDELTKNQVSLTCLVKGFYPSDIAVEWESNGQPENNYKTTPPVLDSDGSFFLYSKLTVDKSRWQQGNVFSCSVMHEALHNHYTQKSLSLSPGK
light: QVQLQQSGPGLVKPSQTLSLTCAISGDSVSSNRAAWNWIRQSPSRGLEWLGRTYYRSKWYNDYAQSLKSRITINPDTPKNQFSLQLNSVTPEDTAVYYCARDGQLGLDALDIWGQGTMVTVSSGGGGSDIQLTQSPSFLSASVGDRVTITCRASQSIGTNIHWYQQKPGKAPKLLIKYASESISGVPSRFSGSGSGTEFTLTISSLQPEDFATYYCQQNNNWPTTFGAGTKLEIKRTDFTPPTVKILQSSCDGGGHFPPTIQLLCLVSGYTPGTINITWLEDGQVMDVDLSTASTTQEGELASTQSELTLSQKHWLSDRTYTCQVTYQGHTFEDSTKKCADSN
notes: homodimeric Fc part; also called bispecific, tetravalent diabody fusion protein using EHD2
B5: Db3-43xhu225-het1EHD2-Fc (bispecific antibody)
heavy: EVQLVESGGGLVQPGGSLRLSCAASGFSLTNYGVHWVRQAPGKGLEWLGVIWSGGNTDYNTPFTSRFTISRDNSKNTLYLQMNSLRAEDTAVYYCARALTYYDYEFAYWGQGTTVTVSSGGGGSQAGLTQPPAVSVAPGQTASITCGRDNIGSRSVHWYQQKPGQAPVLVVYDDSDRPAGIPERFSGSNYENTATLTISRVEAGDEADYYCQVWGITSDHVVFGGGTKLTVLASDFTPPTVKILQSSCDGGGHFPPTIQLLCLVSGYTPGTINITWLEDGQVMDVDLSTASTTQEGELASTQSELTLSQKHWLSDRTYTCQVTYQGHTFEDSTKKSADSNDKTHTCPPCPAPPVAGPSVFLFPPKPKDTLMISRTPEVTCVVVDVSHEDPEVKFNWYVDGVEVHNAKTKPREEQYNSTYRVVSVLTVLHQDWLNGKEYKCKVSNKGLPSSIEKTISKAKGQPREPQVYTLPPSRDELTKNQVSLTCLVKGFYPSDIAVEWESNGQPENNYKTTPPVLDSDGSFFLYSKLTVDKSRWQQGNVFSCSVMHEALHNHYTQKSLSLSPGK
light: QVQLQQSGPGLVKPSQTLSLTCAISGDSVSSNRAAWNWIRQSPSRGLEWLGRTYYRSKWYNDYAQSLKSRITINPDTPKNQFSLQLNSVTPEDTAVYYCARDGQLGLDALDIWGQGTMVTVSSGGGGSDIQLTQSPSFLSASVGDRVTITCRASQSIGTNIHWYQQKPGKAPKLLIKYASESISGVPSRFSGSGSGTEFTLTISSLQPEDFATYYCQQNNNWPTTFGAGTKLEIKRTDFTPPTVKILQSSSDGGGHFPPTIQLLCLVSGYTPGTIQITWLEDGQVMDVDLSTASTTQEGELASTQSELTLSQKHWLSDRTYTCQVTYQGHTFEDSTKKCADSN
notes: also called Db3-43xhu225-hetEHD2-Fc

Key:
[1] = target: T1, TNFR2-Fc (Enbrel) fusion protein; assay: ELISA, coated TNFR2-Fc (Enbrel), anti-human Fab-HRP
Procedure: Bound protein was detected with an HRP-conjugated anti-human Fab antibody. […] Optical density was measured at 450 nm.

TNFR2 (on Kym-1 cells) = target: T2, TNFR2 (on Kym-1 cells); assay: cell-based or functional assay
HER3 (on tumor cells) = target: T3, HER3 (on tumor cells) (UniProt P21860 20-1342, limits assumed); assay: flow cytometry on HER3-expressing SKBR-3 cells
T3 construct: whole, on cells; also called HER3 on MCF-7, SKBR-3 (SKBR3) and FaDu cells

HER3-His [2] = target: T4, HER3-His (UniProt P21860 21-643); assay: simultaneous binding, flow cytometry: molecule titrated on CD3-positive Jurkat cells, HER3-His 300 nM added, PE anti-His
T4 construct: range 21-643; also called His-tagged HER3; second antigen
Procedure: (§1) Simultaneous binding of both antigens was tested via flow cytometry using CD3-expressing Jurkat cells. A titration of bispecific Db3-43xhuU3-EHD2-Fab3-43-Fcₖᵢₕ was incubated with the cells for one hour at RT. After washing cells twice with PBA, the second antigen, HER3-His, was added to the cells (300 nM) and incubated for one additional hour at RT. Cells were washed twice using PBA. Bound HER3-His was detected using a PE-labeled anti-His antibody. After washing, median fluorescence intensity (MFI) was measured with a Milltenyi MACSQuant® Analyzer 10. Relative MFI (to unstained cells) were calculated by MACSQuant® software and Excel.
(§2) Binding studies of Db3-43xhuU3-EHD2-scFv3-43-Fcₖᵢₕ to HER3-expressing (SKBR3; Table 5) and CD3-expressing cells (Jurkat) were analyzed via flow cytometry. Adherent SKBR3 cells were washed with PBS and shortly trypsinized at 37° C. Trypsin was quenched with FCS containing medium and removed by centrifugation (500×g, 5 minutes). Jurkat cells, which are suspension cells, were directly used without trypsin treatment. […] Bound antibodies were detected using PE-labeled anti-human Fc secondary antibody, which was incubated for another hour at 4° C. After washing, median fluorescence intensity (MFI) was measured with a Milltenyi MACSQuant® Analyzer 10. Relative MFI (to unstained cells) were calculated by MACSQuant® software and Excel. […]

CD3 (on Jurkat cells) = target: T5, CD3 (on Jurkat cells) (UniProt P07766 23-207); assay: flow cytometry on CD3-expressing Jurkat cells
T5 construct: whole, on cells; CD3 is a complex of several chains; only CD3 is printed; also called CD3-positive Jurkat cells; CD3-expressing cells (Jurkat)
T5 sequence (P07766 23-207): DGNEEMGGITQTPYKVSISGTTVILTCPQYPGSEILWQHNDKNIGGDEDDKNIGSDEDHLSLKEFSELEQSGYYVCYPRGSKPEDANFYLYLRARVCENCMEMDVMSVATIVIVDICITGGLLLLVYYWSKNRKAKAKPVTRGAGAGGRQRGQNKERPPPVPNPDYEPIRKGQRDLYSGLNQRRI
Procedure: as §1, §2

EGFR-His = target: T6, EGFR-His (UniProt P00533 25-645); assay: ELISA, coated His-tagged EGFR ECD, anti-human Fc-HRP
T6 construct: range 25-645; also called His-tagged EGFR
Procedure: (§3) The His-tagged EGFR or HER3 proteins were used as antigens and coated onto polystyrene microtiter plates at a concentration of 2 μg/ml diluted in PBS. Remaining binding sites were blocked with PBS, 2% skimmed milk (MPBS). […] After washing, bound antibodies were detected with an HRP-conjugated anti-human Fc antibody and TMB, H₂O₂ as substrate. […] Simultaneous binding to both antigens, EGFR and HER3, was confirmed by a second binding ELISA analysis. As first antigen, EGFR-Fc fusion protein was coated onto polystyrene microtiter plates at 2 μg/ml in PBS. Remaining binding sites were blocked with PBS, 2% skimmed milk (MPBS). […] After washing, the second antigen, HER3-His (300 nM diluted in MPBS), was added to the plates. After washing, bound HER3-His (second antigen) was detected with an HRP-conjugated anti-His antibody and TMB, H₂O₂ as substrate.

HER3-His [3] = target: T4, HER3-His; assay: ELISA, coated His-tagged HER3 ECD, anti-human Fc-HRP
Procedure: as §3

HER3-His [4] = target: T4, HER3-His; assay: simultaneous binding ELISA: coated EGFR-Fc, Db titrated, HER3-His 300 nM added, anti-His-HRP
Procedure: as §3

| Binder | EC50 (EGFR-His) | EC50 (HER3-His [3]) | EC50 (HER3-His [4]) | also measured |
| --- | --- | --- | --- | --- |
| B1 | – | – | – | EC50 [1]: 700 pM; EC50 of cell death induction, Kym-1 cells, MTT assay after 24 hours (TNFR2 (on Kym-1 cells)): ~30000 pM |
| B2 | – | – | – | EC50 (HER3 (on tumor cells)): 30 pM; EC50 (HER3-His [2]): 13800 pM; EC50 (CD3 (on Jurkat cells)): 9500 pM |
| B3 | 230 pM | – | – | – |
| B4 | 280 pM | 350 pM | 1400 pM | – |
| B5 | 240 pM | 340 pM | 560 pM | – |

Reference: patent publication US20210002376A1 (UNIVERSIT T STUTTGART, published 2021)
